Substrate in series [1]: O=[N+]([O-])c1ccc(O[C@@H]2O[C@@H](CO)[C@H](O)[C@H]2O)cc1
Description: purified protein. It counts as biochemical, Acetivibrio thermocellus. The following applies: 50°C, 20 mM sodium phosphate pH 5.7 (table note; methods print 50 mM sodium phosphate pH 6.0), substrate 20–500 µM.

Substrate in series [2]: O=[N+]([O-])c1ccc(O[C@@H]2OC[C@H](O)[C@H](O)[C@H]2O)cc1
Description: purified protein. It counts as biochemical, Acetivibrio thermocellus. The following applies: 50°C, 20 mM sodium phosphate pH 5.7 (table note; methods print 50 mM sodium phosphate pH 6.0), substrate 20–500 µM.

B1: CtGH43 (Acetivibrio thermocellus ATCC 27405) (protein)
chain: AADYPIFSQRFTADPAAVVYNGRLYIYCSHDSDATPGQSTYNIPDITCISTDDLKNWTDHGEVFNAKRDSRWASVSWAPSIVYRNNKFYLYYGNGGNGIGVAVSDSPTGPFKDPLPGPLVSWNTPGVQPAQNMWLFDPGVFVDDDGQAYMYFGGNGQNNIRVIKLGNDMISTVGSAMTMSAPRFFEAAYMHKYNGKYYFSYASDFSQGASKIEYMMSDKPTTGFQYKGVILPQPPDNYSNNNHHAIVEYKGNWYVVYHNRTVAKQRGLDPVYQRNVCIDQMFYNADGTIKQVVPTVDGLKQ
notes: truncated: N-terminal GH43 catalytic module only (903 bp), both CBM6 removed; His6-tagged, pET-28a(+), E. coli BL21(DE3) pLysS; 34 kDa
Consider B1, for which, in “purified protein [1]”, the Km was determined as 0.04 ± 0.004 mg/mL and the kcat worked out at 4.783 ± 0.0167 s⁻¹. In addition, in the series “purified protein [2]”, the Km stood at 0.097 ± 0.004 mg/mL and the kcat is 3.533 ± 0.0333 s⁻¹.

B2: Ct43Araf (Acetivibrio thermocellus ATCC 27405) (protein)
chain: AADYPIFSQRFTADPAAVVYNGRLYIYCSHDSDATPGQSTYNIPDITCISTDDLKNWTDHGEVFNAKRDSRWASVSWAPSIVYRNNKFYLYYGNGGNGIGVAVSDSPTGPFKDPLPGPLVSWNTPGVQPAQNMWLFDPGVFVDDDGQAYMYFGGNGQNNIRVIKLGNDMISTVGSAMTMSAPRFFEAAYMHKYNGKYYFSYASDFSQGASKIEYMMSDKPTTGFQYKGVILPQPPDNYSNNNHHAIVEYKGNWYVVYHNRTVAKQRGLDPVYQRNVCIDQMFYNADGTIKQVVPTVDGLKQLKYVDPYTKNLAVTMHKESGIETEECSEGGRNVAFIENGDWIQVKGVDFGNVGPTSFEARVASATNGGNIEIRLDSPTGTLIGTCKVEGTGDWQKWVTKTCSVSKVTGVHDLFFRFTGGSGYLFNFSWWKFNSDATPTPTPPPQPSTVPVTERSAFSKIEVEDFNDIKSSTIQKIGTPNGGSGIGYIENGDWLAYKNIDFGNGATTFKALVASTLSPNIELRLDSPTGTLIGTLKVAATGGFNAYEEQSCNISKVTGKHDLYLVFSGAVNIDWFTFGGSSGII
notes: CtGH43-CtCBM6A-CtCBM6B; His6-tagged, pET-21a(+), E. coli BL21(DE3); 63 kDa; gene range printed 1545911 to 1547651; modules 903, 405 and 402 bp; forward primer starts at AADYP
On to B2, for which, in “purified protein [1]”, the Michaelis constant (Km) is 0.05 ± 0.002 mg/mL and the turnover number (kcat) was 4.717 ± 0.0333 s⁻¹. In the series “purified protein [2]”, the Km worked out at 0.093 ± 0.003 mg/mL and the kcat is 3.5 ± 0.0783 s⁻¹.

By Km is commonly meant the concentration of substrate that gives half-maximal velocity. As usually defined, the kcat is the number of substrate molecules converted per active site and unit of time at saturation.

These data come from article PMC3767815, “A Novel α-L-Arabinofuranosidase of Family 43 Glycoside Hydrolase (Ct43Araf) from Clostridium thermocellum” (PLoS ONE, 2013).
